For orientation: Kd means the equilibrium constant for the complex coming apart.

Consider one substance from PMC8632722.

For this test, the target named is His-TF-LqqP (Lysobacter enzymogenes OH11). In words: MST.

The substance PcoI-His (enzyme) came in with a dissociation constant (Kd) of 0.646 µM.
